According to patent US10450355B2, “Lectins and uses thereof” (THE REGENTS OF THE UNIVERSITY OF MICHIGAN, priority 2014, dated 2019):
Where a chain is given by its changes, count along the chain named. Names may count otherwise.

Experiments:
[1] = tested on: peripheral blood lymphocytes (PBL); assay: Mitogenic activity by BrdU incorporation; type: cell-based; conditions: for stimulation index (mitogenic activity): PBL, three days with lectin, BrdU, less than ten considered non-mitogenic; for mitogenicity, in words: relative to WT BanLec
[2] = target: BanLec variant H84T (recombinant, 6×His tag); assay: biochemical; type: binding, banana; conditions: for Fold Change (Ka, WT vs H84T): WT compared with H84T
[3] = target: BanLec variant H84T (recombinant, 6×His tag) (Musa acuminata, UniProt O22321, H84T); assay: biochemical; type: binding, banana
[4] = target: T1, BanLec, recombinant wild type (rBanLec, codon-optimized cDNA from gi71042661, C-terminal 6×His tag) (Musa acuminata, UniProt O22321); assay: Isothermal titration calorimetry, binding constants of lectin for sugar; design: species or system banana; conditions: WT BanLec, ITC, 25° C., PBS, stoichiometry fixed at 1
T1 sequence (O22321 1-141): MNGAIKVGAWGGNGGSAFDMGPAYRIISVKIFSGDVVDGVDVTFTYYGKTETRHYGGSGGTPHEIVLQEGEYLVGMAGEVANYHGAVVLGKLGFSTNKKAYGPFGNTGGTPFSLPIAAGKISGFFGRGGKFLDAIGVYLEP

[5] = target: T2, BanLec, natural (banana-derived) (Musa acuminata, UniProt O22321); assay: Isothermal titration calorimetry, natural BanLec compared with rBanLec; type: binding; conditions: ITC
T2 sequence (O22321 1-141): T1 sequence (O22321 1-141)

[6] = tested on: the lectins (BanLec WT and H84T mutant); assay: Isothermal titration calorimetry, general statement for the lectins; design: species or system banana; conditions: ITC, 25° C., PBS; relatively low binding constants
Description: Isothermal Titration Calorimetry
Binding constants of the lectins for methyl-α-D-mannopyranoside were determined by isothermal titration calorimetry using a MicroCal VP-ITC calorimeter (Micro-Cal, Northampton, Mass., USA) at 25° C. Data were analyzed using Origins Ver. 7 software supplied with the instrument. The lectin in PBS, generally at approx. 0.2 mM, was titrated with the ligand at 20 mM in the same buffer. The titration volumes were adjusted so that the titration proceeded to at least a 10-fold molar excess of ligand over lectin monomers. The relatively low binding constants (Ka<1000 M^−1) precluded obtaining full saturation or a definite sigmoidal titration curve from which a definitive stoichiometry can be calculated; thus, the stoichiometry was fixed at 1 for curve-fitting to determine Ka; values between about 0.5 and 2-3 had little effect on the Ka-value obtained.

[7] = tested on: 1918 H1N1 pandemic influenza strain; type: cell-based, influenza A virus
[8] = tested on: CD4+ peripheral blood mononuclear cells (PBMC); assay: Flow cytometry of activation marker CD69; type: cell-based
[9] = Aggregation in solution during NMR studies; type: physicochemical; conditions: NMR samples
HIV-1 JR-CSF = type: in vivo, BLT humanized mice; conditions: 75 μg vaginally ten minutes before vaginal HIV-1 JR-CSF challenge; six weeks; p=0.0359 vs PBS
[10] = tested on: PBMCs from healthy donors; assay: Bio-Plex cytokine assay; type: cell-based, human; conditions: PBMC from multiple donors, 72 h
HIV-1 pseudo-typed virus = type: cell-based; conditions: for anti-HIV activity, in words: relative to WT BanLec
[11] = tested on: H5N1 avian influenza strain; type: cell-based, influenza A virus
[12] = tested on: formaldehyde-treated rabbit erythrocytes; assay: Haemagglutination assay; type: cell-based; conditions: rabbit red blood cells

Molecule: Griffithsin [reference compound]
- stimulation index (mitogenic activity) [1]: less than ten

Molecule: OC[C@H]1O[C@@H](O[C@H]2[C@H](O)[C@H](O)C(O)O[C@@H]2CO)[C@@H](O)[C@@H](O)[C@@H]1O (some centres unmarked) [mannobiose]
- KD-values, rBanLec vs H84T [2]: similar
- Fold Change (Ka, WT vs H84T) [2]: 1.32
- Ka ([3]; H84T BanLec, ITC, 25° C., PBS, stoichiometry fixed at 1): 227 mM⁻¹
- Ka [4]: 300 mM⁻¹

Molecule: GNA: Galanthus nivalis agglutinin, non-mitogenic negative control [reference compound]
- stimulation index (mitogenic activity) [1]: less than ten

Molecule: CO[C@H]1O[C@H](CO)[C@@H](O)[C@H](O)[C@@H]1O [methyl-α-mannoside, Methyl α-d-mannopyranoside]
- affinity for the ligand, BanLec vs rBanLec [5]: no difference
- Ka [6]: < 1000 M⁻¹
- KD-values, rBanLec vs H84T [2]: similar
- Fold Change (Ka, WT vs H84T) [2]: 1.09
- Kd [3]: 2.83 µM
- Kd ([4]; read-out: Ka (converted)): 2.61 µM

B1: D133G: BanLec mutant with a mutation in the first or second Greek Key sugar binding motif (protein)
chain: T1 sequence (O22321 1-141) with D133G
- mitogenicity, in words [1]: abolished the mitogenic activity

B2: H84T: BanLec variant in which the histidine at position 84 is replaced by a threonine (protein)
chain: T1 sequence (O22321 1-141) with H84T
- inhibition of replication of 1918 H1N1 virus [7]: very active and equally inhibited replication
- cell surface expression of activation marker CD69 [8]: very little upregulation
- aggregation over time in solution [9]: tendency to aggregate over time
- stimulation of proliferation of lymphocytes ([1]; concentrations up to 1 μM): did not stimulate the proliferation of lymphocytes
- mice with detectable levels of viral RNA in the plasma (HIV-1 JR-CSF): none of the mice
- cytokine/chemokine production [10]: markedly reduced production of cytokines
- inhibition of HIV replication (IC50), in words (HIV-1 pseudo-typed virus): low nanomolar range
- anti-HIV inhibition relative to WT BanLec (HIV-1 pseudo-typed virus; multiple different isolates of HIV): equal to or within one log
- inhibition of replication of H5N1 avian influenza virus [11]: very active and equally inhibited replication
- minimal agglutination concentration [12]: 487 µg/mL

B3: H84W: BanLec mutant, H84 replaced by tryptophan (protein)
chain: T1 sequence (O22321 1-141) with H84W
- mitogenicity, in words [1]: minimal effects
- anti-HIV activity, in words (HIV-1 pseudo-typed virus): minimal effects

B4: H84Y: BanLec mutant, H84 replaced by tyrosine (protein)
chain: T1 sequence (O22321 1-141) with H84Y
- mitogenicity, in words [1]: minimal effects
- anti-HIV activity, in words (HIV-1 pseudo-typed virus): minimal effects

B5: H84F: BanLec mutant, H84 replaced by phenylalanine (protein)
chain: T1 sequence (O22321 1-141) with H84F
- mitogenicity, in words [1]: minimal effects
- anti-HIV activity, in words (HIV-1 pseudo-typed virus): minimal effects

B6: H84K: BanLec mutant, H84 replaced by lysine (protein)
chain: T1 sequence (O22321 1-141) with H84K
- mitogenicity, in words [1]: marked loss
- anti-HIV activity, in words (HIV-1 pseudo-typed virus): marked loss

B7: H84D: BanLec mutant, H84 replaced by aspartic acid (protein)
chain: T1 sequence (O22321 1-141) with H84D
- mitogenicity, in words [1]: marked loss
- anti-HIV activity, in words (HIV-1 pseudo-typed virus): marked loss

B8: H84E: BanLec mutant, H84 replaced by glutamic acid (protein)
chain: T1 sequence (O22321 1-141) with H84E
- mitogenicity, in words [1]: marked loss
- anti-HIV activity, in words (HIV-1 pseudo-typed virus): marked loss

B9: H84Q: BanLec mutant, H84 replaced by glutamine (protein)
chain: T1 sequence (O22321 1-141) with H84Q
- mitogenicity, in words [1]: marked loss
- anti-HIV activity, in words (HIV-1 pseudo-typed virus): marked loss

B10: H84L: BanLec mutant, H84 replaced by leucine (protein)
chain: T1 sequence (O22321 1-141) with H84L
- mitogenicity, in words [1]: marked loss
- anti-HIV activity, in words (HIV-1 pseudo-typed virus): marked loss

B11: H84G: BanLec mutant, H84 replaced by glycine (protein)
chain: T1 sequence (O22321 1-141) with H84G
- mitogenicity, in words [1]: reasonably similar drop in mitogenicity as H84T
- anti-HIV activity, in words (HIV-1 pseudo-typed virus): preserving some antiviral HIV activity
